Measured values reported in paper doi:10.1101/2023.06.19.545549, “DnaK duplicates and regionally evolves for the increase of proteomic complexity in bacteria” (bioRxiv, 2023).

Molecular target: the molecule itself
Assay: SDS-PAGE of the purified protein (monomer and dimer bands); purified MxDnaKs and chimeras on SDS-PAGE without DTT treatment; band compositions confirmed by LC/MS

B1: His6-MxDnaK2, purified recombinant (natural protein, Myxococcus xanthus DK1622, UniProt P95334 1-607, looked up)
chain: MGKVIGIDLGTTNSCVAVMEGGEPVVIPNSEGSRTTPSMVGFTDSGERLVGQIAKRQAITNPENTVFAAKRLIGRKFDSPEGKKAIGVSPFKVASSPNGDAWVEIRGKGYSPPEVSAIVLMKMKQTAEDYLGEQVSEAVITVPAYFNDSQRQATKDAGRIAGLSVLRIINEPTAAALAYGLDKVQDGGTERIAVYDLGGGTFDISILELNAGVFEVKSTNGDTFLGGEDFDQRLIDYLAKRFAESNNGLDLRKDRMALQRLKEAAERAKHELSSAPETEVNLPFITADASGPKHLTETVDRATFEALVTDLIDRTIEPCRIALKDAGIPAQQINQVLLVGGMTRMPRVQQKVKEFFGREPHKGINPDEVVAVGAAIQGGVLKGEVKDVLLLDVTPLSLGVETAGGVFTKIIDKNTTIPCKKSQVFSTAVDNQPLVSVHVLQGEREMAADNKTLARFELVGIPPAPRGVPQIEVSFDIDANGIVHVSAKDLGTGKVQQVRVVSNSGLSEAEIQAMISDAQSHASDDKKKKELAELRNNADGLIYTTEKSLEEYASLLSEKDREEIKADLERLKEVLNTSDAAVLKESFQRLEGSAYRIADAIYTGQAS
notes: MxDnaK2 (MXAN_6671), DnaK of Myxococcus xanthus DK1622; gene amplified from genomic DNA into pET28A; His6-MxDnaK2 printed as 65.3 kDa; source: E. coli BL21 (DE3), purified (Ni-NTA); not shown: His6, N-terminal, kept
stoichiometry N: 2
